Assay: soluble on expression in E. coli; label from the status in PepcDB or PDB records
For “MPLIAGIDIGNATTEVALASDYPQARAFVASGIVATTGMKGTRDNIAGTLAALEQALAKTPWSMSDVSRIYLNEAAPVIGDVAMETITETIITESTMIGHNPQTPGGVGVGVGTTIALGRLATLPAAQYAEGWIVLIDDAVDFLDAVWWLNEALDRGINVVAAILKKDDGVLVNNRLRKTLPVVDEVTLLEQVPEGVMAAVEVAAPGQVVRILSNPYGIATFFGLSPEETQAIVPIARALIGNRSAVVLKTPQGDVQSRVIPAGNLYISGEKRRGEADVAEGAEAIMQAMSACAPVRDIRGEPGTHAGGMLERVRKVMASLTGHEMSAIYIQDLLAVDTFIPRKVQGGMAGECAMENAVGMAAMVKADRLQMQVIARELSARLQTEVVVGGVEANMAIAGALTTPGCAAPLAILDLGAGSTDAAIVNAEGQITAVHLAGAGNMVSLLIKTELGLEDLSLAEAIKKYPLAKVESLFSIRHENGAVEFFREALSPAVFAKVVYIKEGELVPIDNASPLEKIRLVRRQAKEKVFVTNCLRALRQVSPGGSIRDIAFVVLVGGSSLDFEIPQLITEALSHYGVVAGQGNIRGTEGPRNAVATGLLLAGQAN”, the “soluble on expression in E. coli” value was “soluble”. For “MGSDKIHHHHHHMEVIRLDKVSLWRRTQEEFSYDLKKTLLSLIEGKYRKPAKKLVLDNVDLVVEKGDKIGIIGANGSGKSTLLKIISGILQPTTGTVRVRGQVAPLIELGAGFDAEISVMDNILLYGVLLGFSRAEMKERANSILEFAELQDYALVPVKGLSSGMVARLGFSIATDVQPNILILDEVLSVGDENFKNKCKQRIDNFWNGDATVLVVSHDLQFVKQYCNQLVWLSHGKIEFIGDAGEAIQNYLSTLTST”, the “soluble on expression in E. coli” value was “not soluble”. In the case of “MAMHPRKDWYELTRATNWTPSYVTEEQLFPERMSGHMGIPLEKWESYDEPYKTSYPEYVSIQREKDAGAYSVKAALERAKIYENSDPGWISTLKSHYGAIAVGEYAAVTGEGRMARFSKAPGNRNMATFGMMDELRHGQLQLFFPHEYCKKDRQFDWAWRAYHSNEWAAIAAKHFFDDIITGRDAISVAIMLTFSFETGFTNMQFLGLAADAAEAGDYTFANLISSIQTDESRHAQQGGPALQLLIENGKREEAQKKVDMAIWRAWRLFAVLTGPVMDYYTPLEDRSQSFKEFMYEWIIGQFERSLIDLGLDKPWYWDLFLKDIDELHHSYHMGVWYWRTTAWWNPAAGVTPEERDWLEEKYPGWNKRWGRCWDVITENVLNDRMDLVSPETLPSVCNMSQIPLVGVPGDDWNIEVFSLEHNGRLYHFGSEVDRWVFQQDPVQYQNHMNIVDRFLAGQIQPMTLEGALKYMGFQSIEEMGKDAHDFAWADKCKPAMKKSA”, the “soluble on expression in E. coli” value is reported as “soluble”. With “MGSDKIHHHHHHMDKRNSCYLCFGFQSRILARESALMDTQSLQAFLAVADHGSFSLAAEQLHLTQPAVSKRIAGLEGQVGAQLFDRLNRRVTLTEAGRTLLPRARQILVMFDDSRRALSNLSGDISGSLTMATSHHVGLHRLPPLLKAYTQAYPDVRMDMRFLDSEQAYQGVLDGDLELAVVTLAPVPDPALTVVPVWIDQLRFVCGREHALAGRDTVALSALSDYDAVLPGHLTFTRGIVVDTFARDGLQVNVSLSTNYLETLKMMVAIGLGWSVLPETMIDDEIEVIPIDHRPIQRPLGYLFHKSRTLSNAARAMLEMLDAARDTTARQWV” the “soluble on expression in E. coli” value was “not soluble”. In the case of “MRLIKVIITSQKEYSMKKLLSLSAITLSVLAPSAFAAQEVNVYSYRQPFLIEPMFAEFTKETGIKVNVKFAKEGIAEKLAQEGEYSPADVILTSEFSRLFELTEKGLTQPLDSKVIEENIPAQYRDSGDEWFALTQRTRSVYSSRDRLGKLGDDFDYMDLAKPEFKGKICTRSGKHPYNIALVASIIANHGEAEAKAWLEGVKANLARKPQGNDRDQVRAIKEGLCDVSLGNSYYLGAMLNDQEQKSWAEAVYINFPGQNVQGTHVNVSGMAMAKYSPNRENAQKLMEFLTGETAQKMYAEVNYEYPVKPGVQRSALVESWGEFKADSLPLEKIADNNAAAIKLIDEVKFDL”, the “soluble on expression in E. coli” value is reported as “not soluble”. For “MTKRSDSVAPKERINIKYVPATGDEQAEVELPHKMMVLGDFGLDDSRSLEDRQVMRIDKHTFNNVLNDADVSLAMSVPSALDATPNAELAVNLQFKSIQDFGPDRIARQVPELNKLLQLREALVALKGPLGNVPTFRKQLQQLLNDAHARKQLAQELDLVLEAPKAD”, the “soluble on expression in E. coli” value was “not soluble”.
